In article PMC2118495 one finds stoichiometry N data, which are given here for six molecules.

Where two headings read alike, the source gives them in different places.

What all share (assay): native gel or EMSA
For assay [1], the target named is human TCRγδ (clonotypic heterodimer of the γδ TCR) (human (endogenous in PBMCs and γδ T cell clones)).
Assay [2] has as its target mouse TCRγδ (transgenic TCRVγ1.1 and TCRVδ6 chains) (mouse).
For assay [3] the target is unchanged. The source holds these as a separate data set.

As a reminder, the stoichiometry N is the number of molecules, sites or subunits per partner or assembly. In assay [1], “human ζ chain of the TCR (ζζ dimer) (from UniProt P20963 22-164) (natural protein)” yielded a stoichiometry N of 2. For “mouse CD3ε (from UniProt P22646 22-189) (natural protein)”, the stoichiometry N in assay [2] worked out at 2.

“human CD3δ (from UniProt P04234 22-171) (natural protein)”: the stoichiometry N in assay [1] was found to be 1. For “human CD3ε (from UniProt P07766 23-207) (natural protein)”, the stoichiometry N in assay [1] is 2. On to “human CD3γ (from UniProt P09693 23-182) (natural protein)”, for which the stoichiometry N in assay [1] came out at 1.

B1: mouse CD3γ (natural protein)
chain: QTNKAKNLVQVDGSRGDGSVLLTCGLTDKTIKWLKDGSIISPLNATKNTWNLGNNAKDPRGTYQCQGAKETSNPLQVYYRMCENCIELNIGTISGFIFAEVISIFFLALGVYLIAGQDGVRQSRASDKQTLLQNEQLYQPLKDREYDQYSHLQGNQLRKK
Molecule B1 yielded a stoichiometry N in assay [3] of 2.
